According to patent publication US20180009867A1:

Target: IL-1 receptor
Assay: SPR, immobilized IL-1 receptor

Kd	Substance
230 pM	mutant chicken interleukin-1β protein having T117A mutation (ligand)
370 pM	mutant chicken interleukin-1β protein having E118K mutation (ligand)
120 pM	wild-type chicken interleukin-1β (ligand)
